Paper PMC11352552

T1: recombinant human PSGL-1 Fc fusion protein (human)
T1 sequence (Q14242 whole entry, looked up): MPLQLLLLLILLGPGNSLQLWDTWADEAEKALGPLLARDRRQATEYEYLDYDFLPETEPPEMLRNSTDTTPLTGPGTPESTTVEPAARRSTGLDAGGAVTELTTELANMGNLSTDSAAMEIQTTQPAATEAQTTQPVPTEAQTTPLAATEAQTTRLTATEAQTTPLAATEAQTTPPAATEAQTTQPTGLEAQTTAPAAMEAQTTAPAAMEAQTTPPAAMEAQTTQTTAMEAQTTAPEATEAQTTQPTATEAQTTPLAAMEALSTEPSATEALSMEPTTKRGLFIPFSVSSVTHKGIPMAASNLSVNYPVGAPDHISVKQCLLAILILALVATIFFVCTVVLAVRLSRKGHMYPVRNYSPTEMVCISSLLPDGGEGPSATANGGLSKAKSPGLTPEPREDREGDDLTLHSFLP

B1: biotinylated L-selectin (natural protein)
chain: WTYHYSEKPMNWQRARRFCRDNYTDLVAIQNKAEIEYLEKTLPFSRSYYWIGIRKIGGIWTWVGTNKSLTEEAENWGDGEPNNKKNKEDCVEIYIKRNKDAGKWNDDACHKLKAALCYTASCQPWSCSGHGECVEIINNYTCNCDVGYYGPQCQFVIQCEPLEAPELGTMDCTHPLGNFSFSSQCAFSCSEGTNLTGIEETTCGPFGNWSSPEPTCQVIQCEPLSAPDLGIMNCSHPLASFSFTSACTFICSEGTELIGKKKTICESSGIWSNPSPICQKLDKSFSMIKEGDYN
modifications: biotinylated

Target: T1, recombinant human PSGL-1 Fc fusion protein (human)
Assay: ELISA; EC50 of biotinylated P- and L-selectin binding to PSGL-1; the titration itself is not described, the values are given in the competition protocol

Row | Molecule | EC50 [nM]
1 | biotinylated P-selectin (from UniProt P16109 42-771) (natural protein) | 1
2 | B1 | 40
